Test [1] addresses T1, Peptide 4: Biotin-AGGGGSGGGGSGGGGSAAA-Tyr-acid (N-terminal biotin; C-terminal acid).
T1 construct: Control peptide without PC
T1 peptide: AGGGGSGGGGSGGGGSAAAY
Nature of the test: scFv ELISA. A digest of the protocol: (§1)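 Bound scFv was read as OD450 after HRP–anti-V5 detection, TMB development and HCl stop. PPE with BSA was incubated 1 h at RT on BSA-blocked wells coated overnight at 4° C. with peptide, or on streptavidin wells loaded 1 h with biotinylated PC-peptides at 1 μg/mL.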

Test [2] has as its target T2, Peptide 8: Biotin-AEAAAKEAAAKEAAAKEAAAKAAA-Tyr-acid (N-terminal biotin; C-terminal acid).
T2 construct: Control peptide without PC
T2 peptide: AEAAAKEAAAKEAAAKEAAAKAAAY
As to the kind of experiment: scFv ELISA. The essentials:
as §1
(In general: ELISA stands for enzyme-linked immunosorbent assay.)

The target of test [3] is T3, Peptide 1: Biotin-AGGGGSGGGGSGGGGSAAA-[Tyr(PC)]-acid (N-terminal biotin; C-terminal Tyr(PC), PC = p-diazophenyl phosphoryl choline; C-terminal acid).
T3 construct: Synthetic phosphocholine-conjugated peptide
T3 peptide: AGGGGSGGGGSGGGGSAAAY
Nature of the test: scFv ELISA. A digest of the protocol:
as §1

For test [4], the target named is T4, Peptide 5: Biotin-AEAAAKEAAAKEAAAKEAAAKAAA-[Tyr(PC)]-acid (N-terminal biotin; C-terminal Tyr(PC), PC = p-diazophenyl phosphoryl choline; C-terminal acid).
T4 construct: Synthetic phosphocholine-conjugated peptide
T4 peptide: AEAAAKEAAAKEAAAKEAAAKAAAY
As to the kind of experiment: scFv ELISA. The essentials:
as §1

The next test deals with BSA (UniProt P02769). Nature of the test: scFv ELISA.
BSA, sequence (P02769 25-607 limits assumed): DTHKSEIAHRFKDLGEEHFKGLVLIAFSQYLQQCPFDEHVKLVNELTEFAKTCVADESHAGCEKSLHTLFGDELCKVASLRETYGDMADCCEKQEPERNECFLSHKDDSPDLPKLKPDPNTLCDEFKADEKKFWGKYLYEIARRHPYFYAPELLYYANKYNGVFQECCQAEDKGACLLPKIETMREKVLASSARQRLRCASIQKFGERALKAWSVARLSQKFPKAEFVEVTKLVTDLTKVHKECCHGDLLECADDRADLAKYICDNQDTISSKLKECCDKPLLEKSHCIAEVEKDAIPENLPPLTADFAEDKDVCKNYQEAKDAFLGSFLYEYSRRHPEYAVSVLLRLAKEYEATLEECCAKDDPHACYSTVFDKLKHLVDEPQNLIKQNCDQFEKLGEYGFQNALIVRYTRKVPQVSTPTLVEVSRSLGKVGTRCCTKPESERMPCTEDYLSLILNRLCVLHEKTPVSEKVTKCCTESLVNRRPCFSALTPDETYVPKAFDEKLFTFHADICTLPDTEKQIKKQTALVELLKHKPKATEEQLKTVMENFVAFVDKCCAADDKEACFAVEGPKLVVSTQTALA
A further test deals with T5, Peptide 8 (N-terminal biotin; C-terminal Tyr without PC conjugation; C-terminal acid).
T5 construct: Unconjugated control peptide
T5 peptide: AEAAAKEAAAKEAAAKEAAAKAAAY
As to the kind of experiment: scFv ELISA, OD450. The protocol:
(§2) For ELISA analysis of scFv binding, 96-well polystyrene plates were coated with Peptide 1, 4, 5, 8 or 100 μL BSA (10 μg/mL) in PBS at 4° C. overnight. Plates were washed three times with PBS-Tween and blocked with 100 μL 1% BSA-TBS for 1 hour at room temperature. 96-well streptavidin coated plates were coated with 100 μL biotinylated PC-peptides (1 μg/mL) in PBS for 1 hour at room temperature.
(§3) All plates were washed three times with PBS-Tween before 40 μL aliquots of PPE were added to assay plates along with 50 μL 10% BSA, and plates were incubated for 1 hour at room temperature. After washing, […] HRP conjugated anti-V5 in 5% BSA was added, and plates were incubated at room temperature for 30 mins. Plates were washed and 100 μL TMB substrate was added. Color was left to develop at room temperature before the reaction was stopped with 100 μL 1N HCl. The amount of scFv bound to each well was quantitated from absorbance measurement at 450 nm (OD450).

The next test deals with T6, Peptide 4 (N-terminal biotin; C-terminal Tyr without PC conjugation; C-terminal acid).
T6 construct: Unconjugated control peptide
T6 peptide: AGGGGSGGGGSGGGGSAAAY
Nature of the test: scFv ELISA, OD450. The protocol: as §2, §3

B1: PcOxP_DB02_G03 (scFv, V domains shown)
VH: EVQLLESGGGLVQPGGSLRLSCAASGFGFSDFYMEWVRQAPGKGLEWVAASRNKANDYTTEYADSVKGRFTISRDNSKNTLYLQMNSLRAEDTAVYYCARDYYGSSYWYHDVWGQGTLVTVSS
VL: DIVMTQSPDSLAVSLGERATINCTASEDLYSSKHKVHYLAWYQQKPGQPPKLLIYGTSNRYIGVPDRFSGSGSGTDFTLTISSLQAEDVAVYYCAQYYSYPLTFGGGTKVEIK
notes: scFv in periplasmic extract
Turning to B1, the OD450 in test [1] was 0.05 OD450; in test [2] it was 0.05 OD450; in test [3] it was 0.06 OD450; in test [4], 0.1 OD450; with BSA, 0.06 OD450.

B2: PcOxP_DB02_E06 (scFv) (scFv, V domains shown)
VH: EVQLLESGGGLVQPGGSLRLSCAASGFTFSDEYMEWVRQAPGKGLEWVAASRGKGNSYTTEYADSVKGRFTISRDNSKNTLYLQMNSLRAEDTAVYYCARDYYGSSYWYFDVWGQGTLVTVSS
VL: DIQMTQSPSSLSASVGDRVTITCTASESLYSSKHKVHYLAWYQQKPGKAPKLLIYGASNRYIGVPSRFSGSGSGTDFTLTISSLQPEDFATYYCAQFYSYPLTFGGGTKVEIK
notes: scFv in periplasmic extract
As for B2, the binding result in the test with Peptide 8 and with Peptide 4 was “no binding (tested: avg neg. control OD450 + 3x SD)” each time.

Values taken from US20250320312A1 (OXITOPE PHARMA B V, published 2025).
